Several values for one entry are separate records, joined by “and”; a condition that tells them apart may be missing. Equal entries are not always repeated.
Columns and labels:
[1] = tested on: Tos-Gly-Pro-Arg-AMC (SEQ ID NO: 58)
[2] = tested on: GHEQKRR-dL (SEQ ID NO: 110)
[3] = tested on: Z-Leu-Leu-Arg-AMC (SEQ ID NO: 60)
[4] = tested on: Tos-Gly-Pro-Lys-AMC (SEQ ID NO: 59)
[5] = tested on: Boc-Phe-Ser-Arg-AMC (SEQ ID NO: 53)
[6] = tested on: GAEQKRRL (SEQ ID NO: 103)
[7] = tested on: H-Arg-Gln-Arg-Arg-AMC (SEQ ID NO: 63)
[8] = tested on: GGKA-dR-dR-L (SEQ ID NO: 123)
[9] = tested on: GHEQARRL (SEQ ID NO: 108)
[10] = tested on: H-Pro-Phe-Arg-AMC (SEQ ID NO: 55)
[11] = tested on: H-D-Val-Leu-Lys-AMC (SEQ ID NO: 57)
[12] = target: protein C inhibitor (PCI) (UniProt P05154)
[13] = tested on: Z-Val-Val-Arg-AMC (SEQ ID NO: 61)
[14] = tested on: GGKA-dR-RL (SEQ ID NO: 119)
[15] = tested on: GHEQKRRE (SEQ ID NO: 113)
Semenogelin I = Semenogelin I (UniProt P04279)
[16] = tested on: Z-Ala-Arg-Arg-AMC (SEQ ID NO: 62)
Semenogelin II = Semenogelin II (UniProt Q02383)
[17] = tested on: Boc-Gln-Gly-Arg-AMC (SEQ ID NO: 54)
[18] = tested on: boc-Val-Pro-Arg-AMC (SEQ ID NO: 56)
[19] = tested on: GGKAR-dR-L (SEQ ID NO: 122)

Sequence of protein C inhibitor (PCI) (P05154 20-406): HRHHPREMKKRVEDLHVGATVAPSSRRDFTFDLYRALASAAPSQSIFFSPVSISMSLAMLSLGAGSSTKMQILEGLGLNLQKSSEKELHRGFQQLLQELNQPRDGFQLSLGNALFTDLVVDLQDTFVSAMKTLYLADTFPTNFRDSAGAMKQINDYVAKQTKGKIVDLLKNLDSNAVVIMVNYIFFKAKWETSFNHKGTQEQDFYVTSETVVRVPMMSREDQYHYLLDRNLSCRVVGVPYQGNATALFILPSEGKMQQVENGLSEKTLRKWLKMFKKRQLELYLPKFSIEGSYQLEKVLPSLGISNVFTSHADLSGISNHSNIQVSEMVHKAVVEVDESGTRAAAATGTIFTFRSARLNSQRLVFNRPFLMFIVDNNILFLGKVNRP
Sequence of Semenogelin I (P04279 24-462): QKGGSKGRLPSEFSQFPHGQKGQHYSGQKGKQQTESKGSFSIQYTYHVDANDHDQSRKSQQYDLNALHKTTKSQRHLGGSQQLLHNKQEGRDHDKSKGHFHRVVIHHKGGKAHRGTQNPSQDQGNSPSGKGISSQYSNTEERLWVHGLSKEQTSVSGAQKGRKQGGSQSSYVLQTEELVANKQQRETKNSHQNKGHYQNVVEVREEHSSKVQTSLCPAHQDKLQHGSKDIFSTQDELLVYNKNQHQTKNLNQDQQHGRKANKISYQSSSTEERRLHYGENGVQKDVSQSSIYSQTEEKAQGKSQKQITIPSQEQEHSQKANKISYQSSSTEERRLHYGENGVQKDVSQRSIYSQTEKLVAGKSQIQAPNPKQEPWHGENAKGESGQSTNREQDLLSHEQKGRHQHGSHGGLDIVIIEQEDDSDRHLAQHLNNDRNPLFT
Sequence of Semenogelin II (Q02383 24-582): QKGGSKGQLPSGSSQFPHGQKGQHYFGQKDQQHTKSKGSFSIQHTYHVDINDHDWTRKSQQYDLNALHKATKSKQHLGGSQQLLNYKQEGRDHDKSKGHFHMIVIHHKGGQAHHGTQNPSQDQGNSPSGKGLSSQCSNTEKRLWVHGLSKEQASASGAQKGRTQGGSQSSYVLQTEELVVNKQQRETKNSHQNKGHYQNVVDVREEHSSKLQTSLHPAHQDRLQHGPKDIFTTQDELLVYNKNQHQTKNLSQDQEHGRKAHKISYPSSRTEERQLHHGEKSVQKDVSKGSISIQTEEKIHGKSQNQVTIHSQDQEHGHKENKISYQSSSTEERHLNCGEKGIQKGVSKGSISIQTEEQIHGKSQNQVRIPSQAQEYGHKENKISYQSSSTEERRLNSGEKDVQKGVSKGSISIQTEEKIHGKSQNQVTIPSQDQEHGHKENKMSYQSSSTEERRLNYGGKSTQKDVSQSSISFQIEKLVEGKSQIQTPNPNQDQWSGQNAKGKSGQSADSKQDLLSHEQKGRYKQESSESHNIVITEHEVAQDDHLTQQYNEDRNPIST

recombinant human glandular kallikrein 2 (hK2)
hK2 Hydrolysis Rate (GSKGHRRL (SEQ ID NO: 71)): 2650 FU/hr/m
hK2 Hydrolysis Rate (GGAKRRL (SEQ ID NO: 98)): 2770 FU/hr/m
hK2 Hydrolysis Rate (GGGKAHHL (SEQ ID NO: 86)): 70.2 FU/hr/m
hK2 Hydrolysis Rate (GSNTERRL (SEQ ID NO: 77)): 592 FU/hr/m
hK2 Hydrolysis Rate (GGKAFRL (SEQ ID NO: 102)): 2370 FU/hr/m
hK2 Hydrolysis Rate (GPAHQRRL (SEQ ID NO: 69)): 4020 FU/hr/m
hK2 Hydrolysis Rate (GGKARHL (SEQ ID NO: 117)): 939 FU/hr/m
substrate hydrolysis by hK2 [1]: NR
hK2 Hydrolysis Rate [2]: 1690 FU/hr/m
hK2 Hydrolysis Rate (GHEQKGHL (SEQ ID NO: 89)): 1.3 FU/hr/m
hK2 Hydrolysis Rate (GKDVSRRL (SEQ ID NO: 72)): 2320 FU/hr/m
Activity (%) with 100 µM substrate, relative to H-Pro-Phe-Arg-AMC [3]: 7%
Kcat [3]: 0.04 s⁻¹
Kcat/km [3]: 567 M⁻¹ s⁻¹
Km [3]: 71 µM
hK2 Hydrolysis Rate (GSNTEKRL (SEQ ID NO: 80)): 256 FU/hr/m
hK2 Hydrolysis Rate (GGKKRRL (SEQ ID NO: 100)): 2580 FU/hr/m
hK2 Hydrolysis Rate (GSNTEKHL (SEQ ID NO: 87)): 80.5 FU/hr/m
hK2 Hydrolysis Rate (GGKANRL (SEQ ID NO: 115)): 1110 FU/hr/m
substrate hydrolysis by hK2 [4]: NR
hK2 Hydrolysis Rate (GGKAHRL (SEQ ID NO: 114)): 1290 FU/hr/m
hK2 Hydrolysis Rate (GGKARNL (SEQ ID NO: 118)): 828 FU/hr/m
substrate hydrolysis by hK2 [5]: NR
hK2 Hydrolysis Rate (GGKAHKL (SEQ ID NO: 121)): 73.2 FU/hr/m
hK2 Hydrolysis Rate (GSYPSRRL (SEQ ID NO: 74)): 2060 FU/hr/m
hK2 Hydrolysis Rate [6]: 2330 FU/hr/m
hK2 Hydrolysis Rate (GGKARQL (SEQ ID NO: 116)): 1020 FU/hr/m
hK2 Hydrolysis Rate (GSKGHFHL (SEQ ID NO: 81)): 171 FU/hr/m
hK2 Hydrolysis Rate (GGKARRL (SEQ ID NO: 105)): 2170 FU/hr/m
substrate hydrolysis by hK2 [7]: NR
hK2 Hydrolysis Rate [8]: 16.5 FU/hr/m
hK2 Hydrolysis Rate [9]: 1960 FU/hr/m
hK2 Hydrolysis Rate (GHEQKGRL (SEQ ID NO: 76)): 651 FU/hr/m
hK2 Hydrolysis Rate (GPAHQDHL (SEQ ID NO: 90)): 48.1 FU/hr/m
Activity (%) with 100 µM substrate, relative to H-Pro-Phe-Arg-AMC [10]: 100%
Kcat [10]: 0.917 s⁻¹
Kcat/km [10]: 22900 M⁻¹ s⁻¹
Km [10]: 40 µM
rate of cleavage of 100 µM substrate by 1.6 pmol hK2 [10]: 1.6 pmol of the hK2 preparation cleaved 50 pmol/min of the 100 µM substrate Pro-Phe-Arg-AMC
hK2 Hydrolysis Rate (GGQKRRL (SEQ ID NO: 96)): 3270 FU/hr/m
hK2 Hydrolysis Rate (GPLILSRL (SEQ ID NO: 83)): 118 FU/hr/m
hK2 Hydrolysis Rate (GHAQKRRL (SEQ ID NO: 93)): 3670 FU/hr/m
substrate hydrolysis by hK2 [11]: NR
hK2 Hydrolysis Rate (GGGKAHRL (SEQ ID NO: 68)): 4100 FU/hr/m
hK2 Hydrolysis Rate (GSYEERHL (SEQ ID NO: 84)): 42.9 FU/hr/m
hK2 Hydrolysis Rate (GGKHRRL (SEQ ID NO: 107)): 2080 FU/hr/m
progress curves of Pro-Phe-Arg-AMC hydrolysis by 8 nM hK2 with 80, 40 or 16 nM PCI [12]: The inhibitor of hK2 by PCI could be described by the slow-binding inhibition mechanism presented in Scheme 2
hK2 Hydrolysis Rate (GSKGHFRL (SEQ ID NO: 70)): 3030 FU/hr/m
hK2 Hydrolysis Rate (GKDVSGHL (SEQ ID NO: 85)): 67.5 FU/hr/m
hK2 Hydrolysis Rate (GGKAKKL (SEQ ID NO: 120)): 77.9 FU/hr/m
hK2 Hydrolysis Rate (GHEQKRRS (SEQ ID NO: 99)): 2640 FU/hr/m
hK2 Hydrolysis Rate (GSQNQVHL (SEQ ID NO: 92)): 32.5 FU/hr/m
hK2 Hydrolysis Rate (GGKQRRL (SEQ ID NO: 106)): 2170 FU/hr/m
hK2 Hydrolysis Rate (GGKAKRL (SEQ ID NO: 109)): 1790 FU/hr/m
hK2 Hydrolysis Rate (GGGKARRL (SEQ ID NO: 67)): 4780 FU/hr/m
substrate hydrolysis by hK2 [13]: NR
hK2 Hydrolysis Rate (GHEQKRRL (SEQ ID NO: 66)): 5970 FU/hr/m and 3370 FU/hr/m
hK2 Hydrolysis Rate (GGHKRRL (SEQ ID NO: 101)): 2430 FU/hr/m
hK2 Hydrolysis Rate (GKDVSGRL (SEQ ID NO: 79)): 243 FU/hr/m
hK2 Hydrolysis Rate (GPAHQDRL (SEQ ID NO: 88)): 75.3 FU/hr/m
hK2 Hydrolysis Rate (GSQNQVRL (SEQ ID NO: 82)): 194 FU/hr/m
hK2 Hydrolysis Rate (GGKSRRL (SEQ ID NO: 94)): 3440 FU/hr/m
hK2 Hydrolysis Rate (GHEQKRRA (SEQ ID NO: 97)): 3050 FU/hr/m
hK2 Hydrolysis Rate [14]: 494 FU/hr/m
hK2 Hydrolysis Rate [15]: 1470 FU/hr/m
hK2 Hydrolysis Rate (GSQNQRRL (SEQ ID NO: 73)): 2100 FU/hr/m
cleavage by hK2 (HPLC of fragments) (Semenogelin I): Cleavage of either Sg I or Sg II with hK2 results in generation of a multitude of peptides
hK2 Hydrolysis Rate (GGKARKL (SEQ ID NO: 112)): 1600 FU/hr/m
Activity (%) with 100 µM substrate, relative to H-Pro-Phe-Arg-AMC [16]: 33%
Kcat [16]: 0.12 s⁻¹
Kcat/km [16]: 6000 M⁻¹ s⁻¹
Km [16]: 20 µM
hK2 Hydrolysis Rate (GHEAKRRL (SEQ ID NO: 95)): 3320 FU/hr/m
hK2 Hydrolysis Rate (GSYEERRL (SEQ ID NO: 78)): 325 FU/hr/m
cleavage by hK2 (HPLC of fragments) (Semenogelin II): Cleavage of either Sg I or Sg II with hK2 results in generation of a multitude of peptides
hK2 Hydrolysis Rate (GSYPSSHL (SEQ ID NO: 91)): 24.7 FU/hr/m
hK2 Hydrolysis Rate (GGKAQRL (SEQ ID NO: 104)): 2230 FU/hr/m
hK2 Hydrolysis Rate (GGKARRS (SEQ ID NO: 111)): 1610 FU/hr/m
hK2 Hydrolysis Rate (GSYPSSRL (SEQ ID NO: 75)): 1460 FU/hr/m
substrate hydrolysis by hK2 [17]: NR
Activity (%) with 100 µM substrate, relative to H-Pro-Phe-Arg-AMC [18]: 6%
Kcat [18]: 0.0267 s⁻¹
Kcat/km [18]: 567 M⁻¹ s⁻¹
Km [18]: 48 µM
hK2 Hydrolysis Rate [19]: 49.6 FU/hr/m

Reference: US20120309692
